From PMC4426065 (Structure (London, England : 1993), 2015)

B1: Atg13 residues 350-525 (K. lactis) (domain or fragment, Kluyveromyces lactis, UniProt Q6CWK2 350-525, looked up)
chain: AALKVQRGSAGSTIVNGDVPPELSSVGSGSKYSSSFGRIRRHSSIRRSESFDRTAKPRKSTENPPEDLLEFVKLLEDKKELNMKPNTILPQQDISNSLMRFQSMKSNNDALSDNLSMSMSIDQPNVRFGSNSHSPIPSFSPNYGSIPSRLSQGSRNNSNAELITSRKSSLDRHKHN
B2: Atg17 (K. lactis) (natural protein, Kluyveromyces lactis, UniProt Q6CS99 1-423, looked up)
chain: MSDAATTIPSDEIDKLWNKARNQLVEAQVECEESLKILSKVRTEMDSSQKSRFKLKFILNCLVNQVEFFKNIMLEKCISTELIDNEWSKLVLVEIVNDVSYWQNEITTKMKILQGTKYDLTDDHSSLSDFICMDHVDILQQKIDEIPIIKQQVTNIRQHYKSIKDRIENQLVAVKLKKLRTYFDSHFSRDSKNNLFKLLESDYVTELNEFENELADFLRSITDHFDKCTILKEQQIPLPDLKELFQIVKKDDTQLENIRELVFETGLEVKAFSKKVNETISEIMDKIGGFHLLASKIVTELEKCEEYLSIFQKIANLVFVYKESCIKKIEQVQQLCEFYDKFKLGYKNLLRERDRRKATALQMEKILKECQEKLQALSDADLDQRQQFLLENGDYLPENIWPGYIDDMESMYSFEYSIHNVPN
B3: Atg1 EAT domain (K. lactis Atg1 residues 562-831) (domain or fragment, Kluyveromyces lactis, UniProt Q6CSX2 562-831, looked up)
chain: DSNITPAVESLAAKAFVMYSFAEMKFSQILPTPPSSTDYDPLSDKRLSNGSCAIEDEEDLDQGRPPSNQTLTSATTKISSATNVDTQIPAPELKKLCTESLLLYLKALTILAASMKLTSKWWYENESKNCTLKLNILVQWIRDRFNECLDKAEFLRLKLHAINTSPNSQWSDDDPVIFVEKLIYDRALDISRNAARMEMESGNYNTCELAYATSLWMLEILLDENFQFNEVYDDEYASNITSLDESDKEMIKKYISSIANRLKALKSKMV

Experiments:
Assay in all cases: SAXS
[1] = biological target: Atg17-Atg31-Atg29_(1-85) subcomplex from Kluyveromyces lactis (dimeric double crescent) (Kluyveromyces lactis) (UniProt Q6CS99)
[2] = biological target: Atg1 minipentamer: Atg1EAT-Atg13_(350-525)-Atg17-Atg31-Atg29_(1-85) (K. lactis) (Kluyveromyces lactis) (UniProt Q6CSX2)
Atg17 (K. lactis) = biological target: B2
SAXS [3] = biological target: the molecule itself
SAXS [4] = biological target: the molecule itself; remark: listed apart in the source

With “Atg17-Atg31-Atg29_(1-85) subcomplex from Kluyveromyces lactis (dimeric double crescent) (from UniProt Q6CS99 1-423; Q6CTU8 1-85)” the stoichiometry N [1] was 4.

“Atg1 minipentamer: Atg1EAT-Atg13_(350-525)-Atg17-Atg31-Atg29_(1-85) (K. lactis) (from UniProt Q6CSX2 562-831; Q6CWK2 350-525; Q6CS99 1-423; Q6CTU8 1-85) (complex)” showed a stoichiometry N [2] of 4.

B1: binds (Atg17 (K. lactis)).

B2: binds (SAXS [3]).

In the case of B3, the “stoichiometry N” value (SAXS [4]) is reported as 2.
